Measured values published in the PETadex activity labels (doi:10.1038/s41467-023-40233-w).

B1: unnamed (protein)
chain: MLSFLRSTGRPERRRASLPALLLFTAALVASGLTAAPAAQAADNPYQRGPDPTNASIEAATGPFAVGTQPIVGASGFGGGQIYYPTDTSQTYGAVVIVPGFISVWAQLNWLGPRLASQGFVVIGIETSTITDLPDPRGDQALAALDWATTRSPVASRIDRTRLAAAGWSMGGGGLRRAALQRPSLKAIVGMAPWNGERNWSAVTVPTLFFGGSSDAVASPNDHAKPFYNSITRAEKDYIELRNADHFFPTSANTTMAKYFISWLKRWVDNDTRYTQFLCPGPSTGLFAPVSASMNTCPF
B2: unnamed (protein)
chain: MLSFLRSTGRPERRRASLPALLLFTAALVASGLTAAPAAQAADNPYQRGPDPTNASIEAATGPFAVGTQPIVGASGFGGGQIYYPTDTSQTYGAVVIVPGFISVWAQLNWLGPRLASQGFVVIGIETSVITDLPDPRGDQALAALDWATTRSPVASRIDRTRLAAAGWSMGGGGLRRAACQRPSLKAIVGMAPWNGERNWSCVTVPTLFFGGSSDAVASPNDHAKPFYNSITRAEKDYIELCNADHFFPTSANTTMAKYFISWLKRWVDNDTRYTQFLCPGPSTGLFAPVCASMNTCPF
B3: unnamed (protein)
chain: MLSFLRSTGRPERRRASLPALLLFTAALVASGLTAAPAAQAADNPYQRGPDPTNASIEAATGPFAVGTQPIVGASGFGGGQIYYPTDTSQTYGAVVIVPGFISVWAQLNWLGPRLASQGFVVIGIETSVITDLPDPRGDQALAALDWATTASPVASRIDRTRLAAAGWSMGGGGLRRAALQRPSLKAIVGMAPWNGERNWSAVTVPTLFFGGSSDAVASPNDHAKPFYNSITRAEKDYIELRNADHFFPTSANTTMAKYFISWLKRWVDNDTRYTQFLCPGPSTGLFAPVSASMNTCPF
B4: unnamed (protein)
chain: MLSFLRSTGRPERRRASLPALLLFTAALVASGLTAAPAAQAADNPYQRGPDPTNASIEAATGPFAVGTQPIVGASGFGGGQIYYPTDTSQTYGAVVIVPGFISVWAQLNWLGPRLASQGFVVIGIETSVITDLPDPRGDQALAALDWATTRSPVASRIDRTRLAAAGWSMGGGGLRRAALQRPSLKAIVGMAPWNGERNWSAVTVPTLFFGGSSDAVASPNDHAKPFYNSITRAEKDYIELRNADHFFPTSANTTMSKYFISWLKRWVDNDTRYTQFLCPGPSTGLFAPVSASMNTCPF
B5: unnamed (protein)
chain: MLSFLRSTGRPERRRASLPALLLFTAALVASGLTAAPAAQAADNPYQRGPDPTNASIEAATGPFAVGTQPIVGASGFGGGQIYYPTDTSQTYGAVVIVPGFISVWAQLAWLGPRLASQGFVVIGIETSVITDLPDPRGDQALAALDWATTRSPVASRIDRTRLAAAGWSMGGGGLRRAACQRPSLKAIVGMAPWNGERNWSCVTVPTLFFGGSSDAVASPNDHAKPFYNSITRAEKDYIELCNADHFFPTSANTTMAKYFISWLKRWVDNDTRYTQFLCPGPSTGLFAPVCASMNTCPF
B6: unnamed (protein)
chain: MLSFLRSTGRPERRRASLPALLLFTAALVASGLTAAPAAQAADNPYQRGPDPTNASIEAATGPFAVGTQPIVGASGFGGGQIYYPTDTSQTYGAVVIVPGFISVWAQLAWLGPRLASQGFVVIGIETSTITDLPDPRGDQALAALDWATTRSPVRSRIDRTRLAAAGWSMGGGGLRRAACQRPSLKAIVGMAPWNGEKNWSCVTVPTLFFGGSSDAVASPNDHAKPFYNSITRAEKDYIELCNADHFFPTSANTTMAKYFISWLKRWVDNDTRYTQFLCPGPSTGLFAPVCASMNTCPF
B7: unnamed (protein)
chain: MLSFLRSTGRPERRRASLPALLLFTAALVASGLTAAPAAQAADNPYQRGPDPTNASIEAATGPFAVGTQPIVGASGFGGGQIYYPTDTSQTYGAVVIVPGFISVWAQLAWLGPRLASQGFVVIGIETSTITDLPDPRGDQALAALDWATTRSPVRSRIDRTRLAAAGWSMGGGGLRRAACQRPSLKAIVGMAPWNTEKNWSCVTVPTLFFGGSSDAVASPNDHAKPFYNSITRAEKDYIELCNADHFFPTSANTTMAKYFISWLKRWVDNDTRYTQFLCPGPSTGLFAPVCASMNTCPF
B8: unnamed (protein)
chain: MLSFLRSTGRPERRRASLPALLLFTAALVASGLTAAPAAQAADNPYQRGPDPTNASIEAATGPFAVGTQPIVGASGFGGGQIYYPTDTSQTYGAVVIVPGFISVWAQLNWLGPRLASQGFVVIGIETSVITDLPDPRGDQALAALDWATTRSPVASRIDRTRLAAAGWSMGGGGLRRAALQRPSLKAIVGMAPWNTERNWSAVTVPTLFFGGSSDAVASPNDHAKPFYNSITRAEKDYIELRNADHFFPTSANTTMAKYFISWLKRWVDNDTRYTQFLCPGPSTGLFAPVSASMNTCPF
B9: unnamed (protein)
chain: MLSFLRSTGRPERRRASLPALLLFTAALVASGLTAAPAAQAADNPYQRGPDPTNASIEAATGPFAVGTQPIVGASGFGGGQIYYPTDTSQTYGAVVIVPGFISVWAQLNWLGPRLASQGFVVIGIETSVITDLPDPRGDQALAALDWATTRSPVASRIDRTRLAAAGHSMGGGGLRRAALQRPSLKAIVGMAPWNGERNWSAVTVPTLFFGGSSDAVASPNDHAKPFYNSITRAEKDYIELRNADHFFPTSANTTMAKYFISWLKRWVDNDTRYTQFLCPGPSTGLFAPVSASMNTCPF
B10: unnamed (protein)
chain: MLSFLRSTGRPERRRASLPALLLFTAALVASGLTAAPAAQAADNPYQRGPDPTNASIEAATGPFAVGTQPIVGASGFGGGQIYYPTDTSQTYGAVVIVPGFISVWAQLNWLGPRLASQGFVVIGIETSVITDLPDPRGDQALAALDWATTRSPVASRIDATRLAAAGWSMGGGGLRRAALQRPSLKAIVGMAPWNGERNWSAVTVPTLFFGGSSDAVASPNDHAKPFYNSITRAEKDYIELRNADHFFPTSANTTMAKYFISWLKRWVDNDTRYTQFLCPGPSTGLFAPVSASMNTCPF
B11: unnamed (protein)
chain: MLSFLRSTGRPERRRASLPALLLFTAALVASGLTAAPAAQAADNPYQRGPDPTNASIEAATGPFAVGTQPIVGASGFGGGQIYYPTDTSQTYGAVVIVPGFTSVWAQLNWLGPRLASQGFVVIGIETSVITDLPDPRGDQALAALDWATTRSPVASRIDRTRLAAAGWSMGGGGLRRAALQRPSLKAIVGMAPWNGERNWSAVTVPTLFFGGSSDAVASPNDHAKPFYNSITRAEKDYIELRNADHFFPTSANTTMAKYFISWLKRWVDNDTRYTQFLCPGPSTGLFAPVSASMNTCPF
B12: unnamed (protein)
chain: MLSFLRSTGRPERRRASLPALLLFTAALVASGLTAAPAAQAADNPYQRGPDPTNASIEAATGPFAVGTQPIVGASGFGGGQIYYPTDTSQTYGAVVIVPGFISVWAQLNWLGPRLASQGFVVIGIETSVITDLPDPRGDQALAALDWATTRSPVASRIDRTRLAAAGWSMGGGGLRRAALQRPSLKAIVGMAPWNGERNWSAVCVPTLFFGGSSDAVASPNDHAKPFYNSITCAEKDYIELRNADHFFPTSANTTMAKYFISWLKRWVDNDTRYTQFLCPGPSTGLFAPVSASMNTCPF
B13: unnamed (protein)
chain: MLSFLRSTGRPERRRASLPALLLFTAALVASGLTAAPAAQAADNPYQRGPDPTNASIEAATGPFAVGTQPIVGASGFGGGQIYYPTDTSQTYGAVVIVPGFISVWAQLNWLGPRLASQGFVVIGIETSVITDLPDPRGDQALAALDWATTRSPVASRIDRTRLAAAGWSMGGGGLRRAALQRPSLKAIVGMAPWNGERNWSAVTVPTLFFGGSSDAVASPNDHAKPFYNSITRAEKDYIELRNADHFFPTSANTTMAKYFISWLKRWVDNDTRYTQFLCPGPSTGLFAPVSASRNTCPF
B14: unnamed (protein)
chain: MLSFLRSTGRPERRRASLPALLLFTAALVASGLTAAPAAQAADNPYQRGPDPTNASIEAATGPFAVGTQPIVGASGFGGGQIYYPTDTSQTYGAVVIVPGFISVWAQLNWLGPRLASQGFVVIGIETSVITDLPDPRGDQALAALDWATTRSPVASRIDRTRLAAAGWSMGGGGLRRAACQRPSLKAIVGMAPWNGERNWSCVTVPTLFFGGSSDAVASPNDHAKPFYNSITRAEKDYIELRNADHFFPTSANTTMAKYFISWLKRWVDNDTRYTQFLCPGPSTGLFAPVSASMNTCPF
B15: unnamed (protein)
chain: MLSFLRSTGRPERRRASLPALLLFTAALVASGLTAAPAAQAADNPYQRGPDPTNASIEAATGPFAVGTQPIVGASGFGGGQIYYPTDTSQTYGAVVIVPGFISVWAQLNWLGPRLASQGFVVIGIETSVITDQPDPRGDQALAALDWATTRSPVASRIDRTRLAAAGWSMGGGGLRRAALQRPSLKAIVGMAPWNGERNWSAVTVPTLFFGGSSDAVASPNDHAKPFYNSITRAEKDYIELRNADHFFPTSANTTMAKYFISWLKRWVDNDTRYTQFLCPGPSTGLFAPVSASMNTCPF
B16: unnamed (protein)
chain: MLSFLRSTGRPERRRASLPALLLFTAALVASGLTAAPAAQAADNPYQRGPDPTNASIEAATGPFAVGTQPIVGASGFGGGQIYYPTDTSQTYGAVVIVPGFISVWAQLNWLGPRLASQGFVVIGIETSVITDLPDPRGDQALAALDWATTRSPVASRIDRTRLAAAGWSMGGGGLRRAALQRPSLKAIVGMAPWNGERNWSATTVPTLFFGGSSDAVASPNDHAKPFYNSITRAEKDYIELRNADHFFPTSANTTMAKYFISWLKRWVDNDTRYTQFLCPGPSTGLFAPVSASMNTCPF

Substrate: pcPET (post-consumer)
Experiment: Proxy for plastic degradation [Released monomer concentration (HPLC/LC-MS) (TPA+MHET+BHET)]
Details: pH 9; 40 °C; 24 h

B1 and B2 are within 1.5-fold of each other in “Proxy for plastic degradation” value: 990 µM for the first, 948 µM for the second.

B3 and B4 are within 1.5-fold of each other in “Proxy for plastic degradation” value: 600 µM for the first, 530 µM for the second.

B5 and B6 are within 1.5-fold of each other in “Proxy for plastic degradation” value: 1080 µM for the first, 1250 µM for the second.

First: B7
Second: B8
The “Proxy for plastic degradation” value of the first is 1.6-fold higher: 1370 µM for the first, 840 µM for the second.

First: B9
Second: B10
The “Proxy for plastic degradation” value of the first is 3.1-fold lower: 220 µM for the first, 680 µM for the second.

B11 and B12 are within 1.5-fold of each other in “Proxy for plastic degradation” value: 560 µM for the first, 590 µM for the second.

Going from B13 to B14, the “Proxy for plastic degradation” value rises from 310 µM to 850 µM (2.7-fold).

First: B15
Second: B16
The “Proxy for plastic degradation” value of the first is 2.8-fold higher: 470 µM for the first, 170 µM for the second.

Same assay, conditions: pH 9; 60 °C; 6 h

First: B2
Second: B5
The “Proxy for plastic degradation” value of the first is 1.6-fold lower: 270 µM for the first, 420 µM for the second.

B6 and B7 are within 1.5-fold of each other in “Proxy for plastic degradation” value: 1560 µM for the first, 1860 µM for the second.
